B1: chimera #23-57-137-1 antibody with human L chain lambda chain C domain (antibody, IgG1, V domains shown)
VH: EVQLVESGGDLVKPGGSLKLSCAASGFTFSSYGMSWIRQTPDKRLEWVATISSGGSYTYYPDSVKGRFTISRDNAKNTLYLQMSSLKSEDTAMFYCARQTTMTYFAYWGQGTLVTVSA
VL: QLVLTQSSSASFSLGASAKLTCTLSSQHSTYTIEWYQQQPLKPPKYVMDLKQDGSHSTGDGIPDRFSGSSSGADRYLSISNIQPEDEAMYICGVGDTIKEQFVYVFGGGTKVTVLG
notes: Expressed in COS-7 cells; also called chimeric antibody; MBC1HcDNA/pCOS1 + MBC1L(λ)/neo
B2: chimera #23-57-137-1 antibody with human L chain kappa chain C domain (antibody, IgG1, V domains shown)
VH: EVQLVESGGDLVKPGGSLKLSCAASGFTFSSYGMSWIRQTPDKRLEWVATISSGGSYTYYPDSVKGRFTISRDNAKNTLYLQMSSLKSEDTAMFYCARQTTMTYFAYWGQGTLVTVSA
VL: QLVLTQSSSASFSLGASAKLTCTLSSQHSTYTIEWYQQQPLKPPKYVMDLKQDGSHSTGDGIPDRFSGSSSGADRYLSISNIQPEDEAMYICGVGDTIKEQFVYVFGGGTKVTVLG
notes: Mouse V domains joined to human Cγ1 (IgG1) and to the human kappa C domain (from plasmid HEF-PM1k-gk); Expressed in COS-7 cells; also called chimeric antibody; MBC1HcDNA/pCOS1 + MBC1L(κ)/neo
B3: humanized #23-57-137-1 antibody with H chain version "a" and L chain version "s" (antibody, V domains shown)
VH: QVQLVESGGGVVQPGRSLRLSCAASGFTFSSYGMSWVRQAPGKGLEWVATISSGGSYTYYPDSVKGRFTISRDNSKNTLYLQMNSLRAEDTAVYYCARQTTMTYFAYWGQGTLVTVSS
VL: QLVLTQSPSASASLGASVKLTCTLSSQHSTYTIEWYQQQPEKGPKYVMDLKQDGSHSTGDGIPDRFSGSSSGAERYLTISSLQSEDEADYICGVGDTIKEQFVYVFGGGTKLTVLG
notes: Human Cγ1 (IgG1) and human lambda C domain; also called hMBC1HcDNA/pCOS1 + hMBC1Lsλ/pCOS1
B4: mouse FR1, 2/human FR3, 4 hybrid antibody (L chain m/hMBC1Ldλ) (antibody, V domains shown)
VH: QVQLVESGGGVVQPGRSLRLSCAASGFTFSSYGMSWVRQAPGKGLEWVATISSGGSYTYYPDSVKGRFTISRDNSKNTLYLQMNSLRAEDTAVYYCARQTTMTYFAYWGQGTLVTVSS
VL: QLVLTQSSSASFSLGASAKLTCTLSSQHSTYTIEWYQQQPLKPPKYVMDLKQDGSHSTGDGIPDRFSGSSSGAERYLTISSLQSEDEADYICGVGDTIKEQFVYVFGGGTKLTVL
notes: Human Cγ1 and human lambda C domain; Expressed in COS-7 cells; also called hMBC1HcDNA/pCOS1 + m/hMBC1Ldλ/neo
B5: humanized #23-57-137-1 antibody with H chain version "a" and L chain version "l" (antibody, IgG1, V domains shown)
VH: QVQLVESGGGVVQPGRSLRLSCAASGFTFSSYGMSWVRQAPGKGLEWVATISSGGSYTYYPDSVKGRFTISRDNSKNTLYLQMNSLRAEDTAVYYCARQTTMTYFAYWGQGTLVTVSS
VL: QLVLTQSPSASASLGASVKLTCTLSSQHSTYTIEWYQQQPEKGPKYVMDLKQDGSHSTGDGIPDRFSGSSSGAERYLTISSLQSEDEADYYCGVGDTIKEQFVYVFGGGTKLTVLG
notes: Human Cγ1 (IgG1) and human lambda C domain; Expressed in COS-7 cells; also called hMBC1HcDNA/pCOS1 + hMBC1Llλ/pCOS1
B6: humanized #23-57-137-1 antibody with H chain version "a" and L chain version "t" (antibody, IgG1, V domains shown)
VH: QVQLVESGGGVVQPGRSLRLSCAASGFTFSSYGMSWVRQAPGKGLEWVATISSGGSYTYYPDSVKGRFTISRDNSKNTLYLQMNSLRAEDTAVYYCARQTTMTYFAYWGQGTLVTVSS
VL: QLVLTQSPSASASLGASVKLTCTLSSQHSTYTIEWYQQQPEKGPRYVMDLKQDGSHSTGDGIPDRFSGSSSGAERYLTISSLQSEDEADYICGVGDTIKEQFVYVFGGGTKLTVLG
notes: Human Cγ1 (IgG1) and human lambda C domain; Expressed in COS-7 cells; also called hMBC1HcDNA/pCOS1 + hMBC1Ltλ/pCOS1
B7: humanized #23-57-137-1 antibody with H chain version "a" and L chain version "j" (antibody, IgG1, V domains shown)
VH: QVQLVESGGGVVQPGRSLRLSCAASGFTFSSYGMSWVRQAPGKGLEWVATISSGGSYTYYPDSVKGRFTISRDNSKNTLYLQMNSLRAEDTAVYYCARQTTMTYFAYWGQGTLVTVSS
VL: QLVLTQSPSASASLGASVKLTCTLSSQHSTYTIEWYQQQPEKGPKYLMDLKQDGSHSTGDGIPDRFSGSSSGAERYLTISSLQSEDEADYYCGVGDTIKEQFVYVFGGGTKLTVLG
notes: Human Cγ1 (IgG1) and human lambda C domain; Expressed in COS-7 cells; also called hMBC1HcDNA/pCOS1 + hMBC1Ljλ/pCOS1
B8: humanized #23-57-137-1 antibody with H chain version "a" and L chain version "m" (antibody, IgG1, V domains shown)
VH: QVQLVESGGGVVQPGRSLRLSCAASGFTFSSYGMSWVRQAPGKGLEWVATISSGGSYTYYPDSVKGRFTISRDNSKNTLYLQMNSLRAEDTAVYYCARQTTMTYFAYWGQGTLVTVSS
VL: QLVLTQSPSASASLGASVKLTCTLSSQHSTYTIEWYQQQPEKGPRYLMDLKQDGSHSTGDGIPDRFSGSSSGAERYLTISSLQSEDEADYYCGVGDTIKEQFVYVFGGGTKLTVLG
notes: Human Cγ1 (IgG1) and human lambda C domain; Expressed in COS-7 cells; also called hMBC1HcDNA/pCOS1 + hMBC1Lmλ/pCOS1
B9: humanized #23-57-137-1 antibody with H chain version "a" and L chain version "q" (antibody, IgG1, V domains shown)
VH: QVQLVESGGGVVQPGRSLRLSCAASGFTFSSYGMSWVRQAPGKGLEWVATISSGGSYTYYPDSVKGRFTISRDNSKNTLYLQMNSLRAEDTAVYYCARQTTMTYFAYWGQGTLVTVSS
VL: QLVLTQSPSASASLGASVKLTCTLSSQHSTYTIEWYQQQPEKGPKYLMDLKQDGSHSTGDGIPDRFSGSSSGAERYLTISSLQSEDEADYICGVGDTIKEQFVYVFGGGTKLTVLG
notes: Human Cγ1 (IgG1) and human lambda C domain; also called hMBC1HcDNA + hMBC1Lqλ; FERM BP-5629 / FERM BP-5630
B10: antibody in which humanized H chain version "a" was combined with a chimera L chain (antibody, V domains shown)
VH: QVQLVESGGGVVQPGRSLRLSCAASGFTFSSYGMSWVRQAPGKGLEWVATISSGGSYTYYPDSVKGRFTISRDNSKNTLYLQMNSLRAEDTAVYYCARQTTMTYFAYWGQGTLVTVSS
VL: QLVLTQSSSASFSLGASAKLTCTLSSQHSTYTIEWYQQQPLKPPKYVMDLKQDGSHSTGDGIPDRFSGSSSGADRYLSISNIQPEDEAMYICGVGDTIKEQFVYVFGGGTKVTVLG
notes: H chain has human Cγ1; also called humanized H chain version a + chimera L chain
B11: mouse FR1, 2/human FR3, 4 hybrid antibody (L chain m/hMBC1Laλ) (antibody, V domains shown)
VH: QVQLVESGGGVVQPGRSLRLSCAASGFTFSSYGMSWVRQAPGKGLEWVATISSGGSYTYYPDSVKGRFTISRDNSKNTLYLQMNSLRAEDTAVYYCARQTTMTYFAYWGQGTLVTVSS
VL: QLVLTQSSSASFSLGASAKLTCTLSSQHSTYTIEWYQQQPLKPPKYVMDLKQDGSHSTGDGIPDRFSGSSSGAERYLTISSLQSEDEADYYCGVGDTIKEQFVYVFGGGTKLTVL
notes: Human Cγ1 and human lambda C domain; Expressed in COS-7 cells; also called hMBC1HcDNA/pCOS1 + m/hMBC1Laλ/neo
B12: human FR1/mouse FR2, 3, 4 hybrid antibody (L chain hmmMBC1L(λ)) (antibody, V domains shown)
VH: QVQLVESGGGVVQPGRSLRLSCAASGFTFSSYGMSWVRQAPGKGLEWVATISSGGSYTYYPDSVKGRFTISRDNSKNTLYLQMNSLRAEDTAVYYCARQTTMTYFAYWGQGTLVTVSS
VL: QLVLTQSPSASASLGASVKLTCTLSSQHSTYTIEWYQQQPLKPPKYVMDLKQDGSHSTGDGIPDRFSGSSSGADRYLSISNIQPEDEAMYICGVGDTIKEQFVYVFGGGTKVTVL
notes: Human Cγ1 and human lambda C domain; Expressed in COS-7 cells; also called hMBC1HcDNA/pCOS1 + hmmMBC1L(λ)/neo
B13: humanized #23-57-137-1 antibody with H chain version "a" and L chain version "o" (antibody, IgG1, V domains shown)
VH: QVQLVESGGGVVQPGRSLRLSCAASGFTFSSYGMSWVRQAPGKGLEWVATISSGGSYTYYPDSVKGRFTISRDNSKNTLYLQMNSLRAEDTAVYYCARQTTMTYFAYWGQGTLVTVSS
VL: QLVLTQSPSASASLGASVKLTCTLSSQHSTYTIEWYQQQPEKGPRYVMDLKQDGSHSTGDGIPDRFSGSSSGAERYLTISSLQSEDEADYYCGVGDTIKEQFVYVFGGGTKLTVLG
notes: Human Cγ1 (IgG1) and human lambda C domain; Expressed in COS-7 cells; also called hMBC1HcDNA/pCOS1 + hMBC1Loλ/pCOS1
B14: humanized #23-57-137-1 antibody with H chain version "a" and L chain version "r" (antibody, V domains shown)
VH: QVQLVESGGGVVQPGRSLRLSCAASGFTFSSYGMSWVRQAPGKGLEWVATISSGGSYTYYPDSVKGRFTISRDNSKNTLYLQMNSLRAEDTAVYYCARQTTMTYFAYWGQGTLVTVSS
VL: QLVLTQSPSASASLGASVKLTCTLSSQHSTYTIEWYQQQPEKGPRYLMDLKQDGSHSTGDGIPDRFSGSSSGAERYLTISSLQSEDEADYICGVGDTIKEQFVYVFGGGTKLTVLG
notes: Human Cγ1 (IgG1) and human lambda C domain; also called hMBC1HcDNA + hMBC1Lrλ
B15: mouse monoclonal antibody #23-57-137-1 (antibody, V domains shown)
VH: EVQLVESGGDLVKPGGSLKLSCAASGFTFSSYGMSWIRQTPDKRLEWVATISSGGSYTYYPDSVKGRFTISRDNAKNTLYLQMSSLKSEDTAMFYCARQTTMTYFAYWGQGTLVTVSA
VL: QLVLTQSSSASFSLGASAKLTCTLSSQHSTYTIEWYQQQPLKPPKYVMDLKQDGSHSTGDGIPDRFSGSSSGADRYLSISNIQPEDEAMYICGVGDTIKEQFVYVFGGGTKVTVLG
notes: Mouse hybridoma antibody; The L chain is a mouse lambda chain; the H chain was cloned with a mouse gamma-1 primer (MHC-G1); also called anti-PTHrP MoAb

Target: T1, human PTHrP (1-34) (human)
T1 construct: Synthetic peptide (Peninsula / Peptide Research Institute); coated on ELISA plates at 1 ug/ml; also called parathyroid hormone related peptide (1-34)
Assay: ELISA on plate coated with human PTHrP (1-34)
Experimental: The ELISA plate for antigen binding measurement was prepared as follows. Each well of a 96 well plate for ELISA was coated with 100 μl of human PTHrP(1-34) (Peptide Research Institute) adjusted to 1 μg/ml concentration by the coating buffer. […] After the plate was incubated at room temperature and washed with PBS-Tween20, 100 μl of alkaline phosphatase (TAGO) conjugated goat anti-man IgG antibody was added. After the plate was incubated at room temperature and washed with PBS-Tween20, 1 mg/ml of a substrate solution (Sigma104, p-nitrophenylphosphate, SIGMA) was added, and, next, 405 nm absorption was measured with a micro plate reader (Bio Rad).
The ELISA plate for antigen binding measurement was prepared as follows. Each well of a 96 well plate for ELISA was coated with 100 μl of human PTHrP(1-34) adjusted to 1 μg/ml concentration by the coating buffer. After blocking with 200 μl of the dilution buffer, the culture supernatant of the COS-7 cells in which hybrid antibody or humanized antibody was expressed or the purified hybrid antibody or the humanized antibody was stepwise diluted and added to each well. After the plate was incubated at room temperature and washed with PBS-Tween20, 100 μl of alkaline phosphatase (TAGO) conjugated goat anti-man IgG antibody was added. After the plate was incubated at room temperature and washed with PBS-Tween20, 1 mg/ml of a substrate solution (Sigma104, p-nitrophenylphosphate, SIGMA) was added, and 405 nm absorption was then measured on a micro plate reader (Bio Rad).

Row | Binder | binding result
1 | B1 | binds
2 | B2 | binds
3 | B3 | binds
4 | B4 | binds
5 | B5 | binds
6 | B6 | binds
7 | B7 | binds
8 | B8 | binds
9 | B9 | binds
10 | B10 | binds
11 | B11 | binds
12 | B12 | binds
13 | B13 | binds
14 | B14 | binds

Target: T1, human PTHrP (1-34)
Assay: solid phase RIA of hybridoma culture supernatant
Experimental: Screening of hybridomas was performed by measuring and selecting the existence of a PTHrP recognizing antibody by applying solid phase RIA method to the culture supernatant of the wells where growth was recognized in HAT culture medium.

Row | Binder | binding result
15 | B15 | binds

From patent US20070053905A1 (Chugai, published 2007)
